Experimental data: the supplement of paper PMC10126150
± gives the standard deviation of the averaged measurements.

Test system: ATP
Assay: switch fluorescence ratio, 500 uM ATP over buffer (Cy3 cluster intensity, sum of 5 cycles each) (fold (ratio)); higher = stronger signal-on switching upon ATP binding; sequences stand for … in TCGTCGGCAGCGTCAGATGTGTATAAGAGACAGTTTTTTTTTTTTTTTTTTTTTTTTT…TC
Details: aptamer strand: ATP DNA aptamer (quencher-CACCTGGGGGAGTATTGCGGAGGAAGG + anchor), 100 nM annealed; ATP concentration: 500 uM
In short: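 Values give the fluorescence ratio for each switch-domain sequence, averaged from per-cluster ratios of summed target-cycle to summed buffer-cycle Cy3 intensity. The Cy3-labelled switching-strand clusters sat on a modified Illumina MiSeq flow-cell, were annealed to 100 nM quencher-labelled ATP aptamer, and were imaged in selection buffer, then after 15 min with 500 uM ATP at 22 °C. Five cycles ran with NaOH stripping and re-annealing between them, and clusters outside 100-1000 RFU were excluded.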
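Note: ATP exposure 15 min at 22 °C before imaging.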

| Sequence | switch fluorescence ratio |
| --- | --- |
| TTATGCTAAA | 0.994 ± 0.04 |
| TTATGGAAGA | 0.98 ± 0.026 |
| TTATGGCTGA | 0.988 ± 0.017 |
| TTATGGCTTT | 0.985 ± 0.018 |
| TTATGGGCAA | 1.1 ± 0.02 |
| TTATGGGCTT | 1.27 ± 0.42 |
| TTATGGGGAG | 1.005 ± 0.0034 |
| TTATGGGGGT | 1.01 ± 0.03 |
| TTATGGGGTT | 0.999 ± 0.043 |
| TTATGGTAAC | 1.04 ± 0.018 |
| TTATGGTGAA | 0.956 ± 0.049 |
| TTATGGTTGG | 0.995 ± 0.012 |
| TTATGTCAGA | 0.987 ± 0.034 |
| TTATGTGACG | 0.994 ± 0.082 |
| TTATGTGGGG | 0.993 ± 0.033 |
| TTATGTTTCT | 0.972 ± 0.026 |
| TTATTACT | 0.981 ± 0.011 |
| TTATTAGTAT | 1.02 ± 0.016 |
| TTATTCCATA | 0.98429 ± 0.00091 |
| TTATTCCGGT | 1.006 ± 0.0024 |
| TTATTCGATT | 0.982 ± 0.019 |
| TTATTCGGCA | 1.005 ± 0.0036 |
| TTATTCTTTT | 1 ± 0.026 |
| TTATTGATCT | 1 ± 0.065 |
| TTATTGCGGA | 0.994 ± 0.022 |

| Sequence | switch fluorescence ratio |
| --- | --- |
| TTATTGCTCG | 0.989 ± 0.021 |
| TTATTGGGCT | 1.01 ± 0.013 |
| TTATTGGGTG | 1.04 ± 0.024 |
| TTATTGTAAG | 0.9675 ± 0.006 |
| TTATTGTGTA | 0.979 ± 0.025 |
| TTATTTAGCG | 1.03 ± 0.029 |
| TTATTTAGTT | 1.01 ± 0.017 |
| TTATTTCCAC | 0.986 ± 0.013 |
| TTATTTCGTG | 0.998 ± 0.03 |
| TTATTTCTTG | 0.994 ± 0.046 |
| TTATTTGATA | 1 ± 0.034 |
| TTATTTGCGC | 1.024 ± 0.0036 |
| TTATTTTATG | 0.994 ± 0.027 |
| TTATTTTTCG | 1.02 ± 0.018 |
| TTATTTTTGG | 0.989 ± 0.027 |
| TTCAAAAAAA | 0.97 ± 0.026 |
| TTCAAAACGT | 1.04 ± 0.017 |
| TTCAAAATTT | 0.982 ± 0.015 |
| TTCAAACATC | 1 ± 0.015 |
| TTCAAATTGG | 1 ± 0.043 |
| TTCAAATTTT | 1.01 ± 0.015 |
| TTCAAGGAGG | 0.978 ± 0.016 |
| TTCAAGGGGG | 1 ± 0.018 |
| TTCAAGGTCA | 1.02 ± 0.028 |
| TTCAAGTGGG | 0.9848 ± 0.0028 |

| Sequence | switch fluorescence ratio |
| --- | --- |
| TTCAATAGAA | 0.998 ± 0.0029 |
| TTCAATGCTC | 2.17 ± 0.82 |
| TTCACAAGGT | 1.004 ± 0.0049 |
| TTCACATACG | 1.51 ± 0.03 |
| TTCACGAAGA | 1 ± 0.0015 |
| TTCACTGGGG | 1.05 ± 0.012 |
| TTCACTTTTG | 1.01 ± 0.028 |
| TTCAGAAACA | 1.04 ± 0.037 |
| TTCAGAGAAA | 0.98 ± 0.034 |
| TTCAGAGGCG | 1.04 ± 0.011 |
| TTCAGCAAT | 5.31 ± 0.8 |
| TTCAGCCCGG | 0.986 ± 0.056 |
| TTCAGCTACA | 1.02 ± 0.029 |
| TTCAGCTGAG | 0.9861 ± 0.0091 |
| TTCAGGAGGG | 0.991 ± 0.042 |
| TTCAGGCCTT | 1.04 ± 0.059 |
| TTCAGGCTTT | 1.01 ± 0.011 |
| TTCAGGTACT | 1.06 ± 0.019 |
| TTCAGTCCGG | 1.01 ± 0.026 |
| TTCATATACT | 1.06 ± 0.034 |
| TTCATATCAT | 1 ± 0.03 |
| TTCATCGAGC | 1.019 ± 0.0076 |
| TTCATCGGCA | 1.35 ± 0.47 |
| TTCATCTGCA | 2.19 ± 1.5 |
| TTCATGATTT | 1.034 ± 0.0045 |

| Sequence | switch fluorescence ratio |
| --- | --- |
| TTCATGGTAT | 0.991 ± 0.031 |
| TTCATTATGG | 1.004 ± 0.0049 |
| TTCATTATTT | 1 ± 0.024 |
| TTCATTGGTT | 0.998 ± 0.038 |
| TTCATTTTGA | 0.967 ± 0.015 |
| TTCCAGGGGA | 1.08 ± 0.11 |
| TTCCAGGGTG | 1.71 ± 0.92 |
| TTCCATGGCA | 1.037 ± 0.0056 |
| TTCCATTTGT | 1.031 ± 0.0019 |
| TTCCCAGCAG | 1.68 ± 0.65 |
| TTCCCCCCAA | 1.76 ± 0.74 |
| TTCCCGGGGG | 1.06 ± 0.067 |
| TTCCCGGGGT | 1.2 ± 0.32 |
| TTCCCGGTGT | 1.75 ± 0.041 |
| TTCCCTAATG | 1 ± 0.033 |
| TTCCCTGAGA | 0.977 ± 0.025 |
| TTCCGAAATG | 1.63 ± 0.17 |
| TTCCGAGTTC | 1.15 ± 0.13 |
| TTCCGGCGCT | 3.42 ± 1.1 |
| TTCCGGGAAA | 0.968 ± 0.031 |
| TTCCGGGCTA | 1.47 ± 0.62 |
| TTCCGGTCCG | 1.16 ± 0.18 |
| TTCCGGTTTG | 0.999 ± 0.054 |
| TTCCGTTAGA | 1.06 ± 0.017 |
| TTCCGTTGAA | 1.05 ± 0.044 |

| Sequence | switch fluorescence ratio |
| --- | --- |
| TTCCTAGGGA | 0.994 ± 0.046 |
| TTCCTCTCGG | 1.17 ± 0.18 |
| TTCCTTCGAT | 1.51 ± 0.062 |
| TTCCTTGCGG | 1.08 ± 0.057 |
| TTCCTTGGAG | 1.01 ± 0.047 |
| TTCCTTTTAA | 1.04 ± 0.055 |
| TTCGAAAAAA | 1.06 ± 0.14 |
| TTCGAAAAAT | 1.05 ± 0.064 |
| TTCGAAACGA | 1.1 ± 0.14 |
| TTCGAAAGGT | 1.1 ± 0.2 |
| TTCGAAATT | 1.02 ± 0.035 |
| TTCGAGAGGG | 0.981 ± 0.028 |
| TTCGAGATCT | 1.16 ± 0.11 |
| TTCGAGCATT | 1.39 ± 0.17 |
| TTCGAGGTTT | 0.982 ± 0.059 |
| TTCGATCTGA | 0.955 ± 0.012 |
| TTCGATTTGC | 1.01 ± 0.022 |
| TTCGCAGGAT | 1.1 ± 0.027 |
| TTCGCCGGCC | 1.26 ± 0.34 |
| TTCGCGGCAC | 2.44 ± 1.3 |
| TTCGCGGGCT | 0.996 ± 0.028 |
| TTCGCTGCCT | 1.03 ± 0.019 |
| TTCGCTGTAT | 1.01 ± 0.011 |
| TTCGGACCAA | 1.46 ± 0.096 |
| TTCGGAGCTG | 1.07 ± 0.14 |

| Sequence | switch fluorescence ratio |
| --- | --- |
| TTCGGAGTAC | 1.38 ± 0.14 |
| TTCGGAGTCT | 0.985 ± 0.094 |
| TTCGGATATT | 1.13 ± 0.23 |
| TTCGGCGCGG | 1.21 ± 0.32 |
| TTCGGCTCGA | 1.05 ± 0.034 |
| TTCGGCTGGG | 0.98 ± 0.034 |
| TTCGGGAAAA | 0.982 ± 0.016 |
| TTCGGGAGAG | 0.996 ± 0.071 |
| TTCGGGGTAG | 0.963 ± 0.048 |
| TTCGGGGTTA | 1.01 ± 0.018 |
| TTCGGGGTTG | 0.96 ± 0.015 |
| TTCGGGTCCT | 1.02 ± 0.031 |
| TTCGGGTGTG | 0.999 ± 0.025 |
| TTCGGTAGGG | 0.926 ± 0.053 |
| TTCGGTTATG | 1.01 ± 0.033 |
| TTCGGTTGGG | 0.986 ± 0.029 |
| TTCGTAGACT | 0.991 ± 0.017 |
| TTCGTGATAG | 1.308 ± 0.0028 |
| TTCGTGGGCT | 1.02 ± 0.045 |
| TTCGTGGGGG | 0.991 ± 0.015 |
| TTCGTGGGGT | 1.03 ± 0.061 |
| TTCGTGTGCC | 0.94 ± 0.011 |
| TTCGTTATTA | 1.34 ± 0.42 |
| TTCGTTGGCT | 1.16 ± 0.23 |
| TTCGTTTGAA | 1 ± 0.027 |

| Sequence | switch fluorescence ratio |
| --- | --- |
| TTCTAAAATT | 0.992 ± 0.032 |
| TTCTAAAGTA | 0.994 ± 0.014 |
| TTCTAAGGGG | 1.93 ± 1.3 |
| TTCTAATGAG | 0.998 ± 0.019 |
| TTCTACCTGA | 1.064 ± 0.0086 |
| TTCTACTGAT | 1.32 ± 0.39 |
| TTCTAGGCGC | 0.9972 ± 0.0073 |
| TTCTAGGCGG | 1.03 ± 0.029 |
| TTCTAGGGAA | 0.977 ± 0.023 |
| TTCTAGGTAG | 0.991 ± 0.05 |
| TTCTAGTTGA | 0.991 ± 0.022 |
| TTCTATTGTT | 0.999 ± 0.017 |
| TTCTCACGTC | 1.01 ± 0.082 |
| TTCTCACTTG | 1.02 ± 0.03 |
| TTCTCGCTGG | 1 ± 0.041 |
| TTCTGAACGT | 1 ± 0.015 |
| TTCTGATCAG | 1.01 ± 0.011 |
| TTCTGATGGT | 0.99 ± 0.021 |
| TTCTGATTGC | 0.984 ± 0.064 |
| TTCTGCAGGT | 0.995 ± 0.011 |
| TTCTGCCCC | 1.01 ± 0.033 |
| TTCTGGAACT | 1.03 ± 0.015 |
| TTCTGGCACA | 1.02 ± 0.029 |
| TTCTGGCGCG | 0.984 ± 0.015 |
| TTCTGGGGAG | 1.03 ± 0.051 |

| Sequence | switch fluorescence ratio |
| --- | --- |
| TTCTGGGGGA | 0.992 ± 0.039 |
| TTCTGGGGTA | 0.988 ± 0.033 |
| TTCTGGTGTG | 0.9703 ± 0.0072 |
| TTCTGTATGC | 1.02 ± 0.045 |
| TTCTGTATGT | 0.97 ± 0.029 |
| TTCTGTGGTG | 1.01 ± 0.028 |
| TTCTGTTTGG | 1.01 ± 0.017 |
| TTCTTAGAGT | 1.02 ± 0.016 |
| TTCTTCATAG | 1.02 ± 0.015 |
| TTCTTCTGGC | 1.017 ± 0.0073 |
| TTCTTCTGGG | 0.997 ± 0.017 |
| TTCTTGAAG | 0.966 ± 0.02 |
| TTCTTGAGGT | 0.9669 ± 0.0016 |
| TTCTTGGGGT | 0.975 ± 0.056 |
| TTCTTGTAAT | 1.014 ± 0.003 |
| TTCTTTGTTG | 0.984 ± 0.046 |
| TTCTTTTAAT | 0.98998 ± 0.0005 |
| TTCTTTTATG | 1.02 ± 0.021 |
| TTGAAAAAGC | 0.975 ± 0.015 |
| TTGAAACATT | 1.01 ± 0.024 |
| TTGAAAGGGC | 1.02 ± 0.019 |
| TTGAAAGGGT | 0.981 ± 0.087 |
| TTGAAATGTT | 0.9923 ± 0.0033 |
| TTGAACGAGC | 0.99 ± 0.04 |
| TTGAACGGTG | 1.03 ± 0.047 |
